Measurements: patent US20040081659A1, “Conjugates useful in the treatment of prostate cancer” (Merck & Co., Inc., priority 1997, published 2004)
“And” between values parts separate entries of the source, which are not always exact repeats. Equal values may be shown once. Read-outs that look alike come from different tables or passages of the source.

Experiments:
[1] = molecular target: T1, enzymatically active free PSA (York PSA) (Homo sapiens, UniProt P07288); assay: Recognition/cleavage of oligopeptide-vinca drug conjugates by free PSA (HPLC); type: biochemical; details: for Time to 50% Substrate Cleavage by York PSA: conjugate to PSA molar ratio 100 to 1, pH7.4 buffer
T1 construct: 50% cleavage of the noted. oligopeptide-cytotoxic agent conjugates with enzymatically active free PSA were then calculated; purchased York
T1 sequence (P07288 25-261): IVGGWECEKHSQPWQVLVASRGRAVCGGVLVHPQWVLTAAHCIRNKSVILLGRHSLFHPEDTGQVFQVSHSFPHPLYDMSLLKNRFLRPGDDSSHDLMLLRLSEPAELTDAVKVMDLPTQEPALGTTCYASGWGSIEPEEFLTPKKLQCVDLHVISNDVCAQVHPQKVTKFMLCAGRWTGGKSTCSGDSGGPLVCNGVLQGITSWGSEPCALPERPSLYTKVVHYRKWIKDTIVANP
Procedure: The conjugates prepared as described in Example 3 were individually dissolved in PSA digestion buffer (50 mM tris(hydroxymethyl)-aminomethane pH7.4, 140 mM NaCl) and the solution added to PSA at a molar ration of 100 to 1. Alternatively, the PSA digestion buffer utilized is 50 mM tris(hydroxymethyl)-aminomethane pH7.4, 140 mM NaCl. The reaction was quenched after various reaction times by the addition of trifluoroacetic acid (TFA) to a final 1% (volume/volume). Alternatively the reaction is quenched with 10 mM ZnCl2. The quenched reaction was analyzed by HPLC on a reversed-phase C18 column using an aqueous 0.1 % TFA/acetonitrile gradient. The amount of time (in minutes) required for 50% cleavage of the noted. oligopeptide-cytotoxic agent conjugates with enzymatically active free PSA were then calculated.

[2] = molecular target: T1, enzymatically active free PSA (York PSA); assay: as above; type: biochemical
[3] = tested on: Colo320DM cells; assay: In vitro cytotoxicity, Alamar Blue assay, Colo320DM control cells (do not express free PSA); type: cell-based; details: 72 HRS, read-out: Colo320DM cell kill EC 50 (in parentheses)
Procedure: (§1) Specifically, cell cultures of LNCap prostate tumor cells, Colo320DM cells (designated C320) or T47D cells in 96 well plates was diluted with medium containing various concentrations of a given conjugate (final plate well volume of 200 μl). […] The cells were incubated for 3 days at 37° C., 20 μl of Alamar Blue is added to the assay well. The cells were further incubated and the assay plates were read on a EL-310 ELISA reader at the dual wavelengths of 570 and 600 nm. at 4 and 7 hours after addition of Alamar Blue. Relative percentage viability at the various concentration of conjugate tested was then calculated versus control (no conjugate) cultures and an EC50 was determined. Unless otherwise indicated, the acetate salt of the conjugate was tested.

[4] = tested on: LNCap prostate tumor cells; assay: In vitro cytotoxicity, Alamar Blue assay, LNCaP cells; type: cell-based; details: read-out: LNCaP Cell Kill in 72 HRS EC 50
Procedure: as §1

Row | Compound | Substrate cleavage by York PSA at 1 HOUR [1] | Time to 50% Substrate Cleavage by York PSA [1] | other results
1 | 4-O-[Ac-SChgQS-Aib-P]-dAc-VIN | 1 HOUR = 8% | – | –
2 | 4-O-[Ac-4-trans-L-HypSSChgQ-(dS)SP]-dAc-VIN | – | – | Time to 50% Substrate Cleavage by York PSA, 10 X ENZ [2]: 6 HOURS (10 X
3 | CC[C@]1(O)C[C@@H]2CN(CCc3c([nH]c4ccccc34)[C@@](C(=O)OC)(c3cc4c(cc3OC)N(C)[C@H]3[C@@](O)(C(=O)OC)[C@H](OC(C)=O)[C@]5(CC)C=CCN6CC[C@]43[C@@H]65)C2)C1 [VINBLASTINE, reference compound] | – | – | EC50 ([3]; Homo sapiens, COLO 320DM): 0.5 µM; EC50 ([4]; Homo sapiens, LNCaP, 72 h): 0.5 µM
4 | CC[C@]1(O)C[C@H]2CN(CCc3c([nH]c4ccccc34)[C@@](C(=O)OC)(c3cc4c(cc3OC)N(C)[C@H]3[C@@](O)(C(=O)OC)[C@H](OC(=O)CNC)[C@]5(CC)C=CCN6CC[C@]43[C@@H]65)C2)C1 [4-O-sarcosyl-(dAc)-VIN] | – | – | EC50 [3]: 1.8 µM; EC50 ([4]; 72 HRS): 1.3 µM
5 | 4-O-[Ac-SChgQSS-Pip]-dAc-VIN | – | 15 min | –
6 | 4-O-[Ac-SSChgQ-S(dS)-4-trans-L-Hyp]-dAc-VIN | 1 HOUR = 14% | – | –
7 | 4-O-[(2-OH)Ac-SChgQSS-Sar]-dAc-VIN (XXQSSX; N-methyl; non-natural residues) | 1 HOUR = 4% | – | –
8 | 4-O-(Ac-3-Pal-SSChgQ(dS)-P)-dAc-VIN (XSSXQXP; D-residues; non-natural residues) | – | – | Substrate cleavage by York PSA at 3 HOURS ([1]; 3 HOURS): 3 HOURS = 0%
9 | 4-O-[Ac-SChgQSS-Aib-P]-dAc-VIN | – | 15 min and 23 min | –
10 | (4-O)-Ac-(4-trans-L-Hyp)SSChgQ-SL-(dAc)-VIN (XSSXQSL; non-natural residues) | – | 35 min | –
11 | 4-O-(Ac-SSChgQ-SS-P)-dAc-VIN (XSXQSSP; non-natural residues) | – | 15 min | –
12 | CCC1(O)CC2CN(CCc3c([nH]c4ccccc34)C(C(=O)OC)(c3cc4c(cc3OC)N(C)C3C(O)(C(=O)OC)C(OC(=O)C5CC(O)CN5)C5(CC)C=CCN6CCC43C65)C2)C1 [(4-O-4-trans-L-Hyp)-dAc-VIN] | – | – | EC50 [3]: 1.1 µM; EC50 ([4]; 72 HRS): 0.6 µM
13 | Ac-AbuSSChgQ-(dS)-(4-O-P)-dAc-VIN | 1 HOUR = 0% | – | –
